We go through two molecules from paper doi:10.1101/2021.05.24.445390 (bioRxiv, 2021).

In the test the target is Tetanus neurotoxin (TeNT) (Clostridium tetani strain Y-IV-3 (WS …, UniProt P04958)). Description: SPR. On the technique in general: SPR reads the build-up and loss of mass on a sensor chip optically.
Sequence of Tetanus neurotoxin (TeNT) (Clostridium tetani strain Y-IV-3 (P04958 1-457, chain 1 of 2): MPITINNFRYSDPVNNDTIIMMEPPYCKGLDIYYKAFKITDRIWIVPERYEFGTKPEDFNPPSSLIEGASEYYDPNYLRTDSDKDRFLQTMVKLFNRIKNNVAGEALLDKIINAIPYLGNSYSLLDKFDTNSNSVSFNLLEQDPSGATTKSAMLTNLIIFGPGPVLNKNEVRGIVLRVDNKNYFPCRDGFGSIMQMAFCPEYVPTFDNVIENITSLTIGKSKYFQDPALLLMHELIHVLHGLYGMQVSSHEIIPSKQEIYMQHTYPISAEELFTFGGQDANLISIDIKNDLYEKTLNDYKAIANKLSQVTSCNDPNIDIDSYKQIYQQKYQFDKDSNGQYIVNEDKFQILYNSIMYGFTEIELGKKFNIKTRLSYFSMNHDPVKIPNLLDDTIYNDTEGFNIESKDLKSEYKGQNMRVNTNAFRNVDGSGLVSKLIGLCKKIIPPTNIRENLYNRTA
Sequence of Tetanus neurotoxin (TeNT) (Clostridium tetani strain Y-IV-3 (P04958 458-1315, chain 2 of 2): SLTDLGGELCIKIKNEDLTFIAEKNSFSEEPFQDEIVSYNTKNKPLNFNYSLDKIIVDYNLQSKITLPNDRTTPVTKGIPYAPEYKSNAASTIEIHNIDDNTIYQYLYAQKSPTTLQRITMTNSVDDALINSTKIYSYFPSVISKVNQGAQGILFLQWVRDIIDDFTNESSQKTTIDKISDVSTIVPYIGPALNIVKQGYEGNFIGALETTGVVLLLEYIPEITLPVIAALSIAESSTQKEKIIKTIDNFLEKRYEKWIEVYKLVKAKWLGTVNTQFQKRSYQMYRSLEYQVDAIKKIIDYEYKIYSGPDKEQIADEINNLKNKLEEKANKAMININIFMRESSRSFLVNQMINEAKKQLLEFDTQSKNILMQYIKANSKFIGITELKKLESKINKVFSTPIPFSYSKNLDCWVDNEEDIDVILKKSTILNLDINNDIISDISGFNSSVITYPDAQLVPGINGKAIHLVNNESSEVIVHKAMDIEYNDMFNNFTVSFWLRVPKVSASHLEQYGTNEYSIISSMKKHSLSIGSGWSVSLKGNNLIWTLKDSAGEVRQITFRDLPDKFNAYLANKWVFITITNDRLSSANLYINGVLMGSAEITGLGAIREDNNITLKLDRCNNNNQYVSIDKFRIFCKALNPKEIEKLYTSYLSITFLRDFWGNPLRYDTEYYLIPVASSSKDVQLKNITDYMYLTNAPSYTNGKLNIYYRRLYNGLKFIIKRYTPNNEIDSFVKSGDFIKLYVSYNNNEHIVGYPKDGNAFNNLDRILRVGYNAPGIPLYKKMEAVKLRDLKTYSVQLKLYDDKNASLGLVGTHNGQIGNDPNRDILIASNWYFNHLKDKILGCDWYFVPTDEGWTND

B1: TT104-Fab (Fab, V domains shown)
VH: QLQLQESGPGLVRPSETLSLTCSVSDDSMGSSTYYWAWIRQPPGKGLEWIGNVYYNGVTYYNSSLESRLTLSIDPSKNQFSLILSSVTAADTAVYYCARQADNWFDPWGQGTLVTVSS
VL: IMMTQSPATLSVSPGERATLSCRASQSVGSDLAWYQQKPGQAPRLLIYGASYRATGIPARFSGGGSGTEFTLTISSMQSEDFAVYYCQQYYNWPPYTFGQGTKVEIK
In general, Kd refers to the constant that tells how readily two partners part at equilibrium. The low end stands for higher affinity, the high end for lower affinity. Molecule B1 had a Kd of 0.0067 nM.

B2: TT110-Fab (Fab, V domains shown)
VH: QVQLMQSGAEVQKPGASVKVSCQASGFTLNNYYIHWLRQAPGQGFEWMGIFNPSSGTRTYAQKFQGRISMTADASTTTLYMELSGLTSEDAGVYFCARIGGSTYGRLMTYYFDHWGQGTVVAVSS
VL: VLTQGPVTLSVSPGGRGTLSCRASRSISTTLAWYQQKPGQAPRLLIYGASTRATGIPARFTGSGSGTEFTLTISSLQSEDFAVYYCQQYNDWPVTFGQGTQVEVK
In the case of B2, the Kd was 3 nM.
